Assay results: article PMC12623717

Key:
[1] = biological target: Rotavirus strain SA11 nonstructural protein 2 with the K294E change, untagged (NSP2 K294E) (rotavirus strain SA11); assay: crystal structure; sitting drop vapor diffusion, 20 °C; protein ~8 mg/mL in 10 mM Tris-HCl pH 7.2, 50 mM NaCl, 1 mM DTT; reservoir 100 mM Tris-HCl pH 7.5, 0.2 M magnesium acetate, 12% PEG6K; space group I422, 1 molecule per asymmetric unit, octamer with D4 symmetry
[2] = biological target: Rotavirus strain SA11 nonstructural protein 2, wildtype, untagged (NSP2WT) (rotavirus strain SA11); assay: as above

| Substance | stoichiometry N [1] | stoichiometry N [2] |
| --- | --- | --- |
| Rotavirus strain SA11 nonstructural protein 2 with the K294E change, untagged (NSP2 K294E) (natural protein) | 8 |  |
| Rotavirus strain SA11 nonstructural protein 2, wildtype, untagged (NSP2WT) (natural protein) |  | 8 |
